No end group written: not given here.
T1: human Y2 receptor (human, UniProt P49146 1-381)
T1 sequence (looked up): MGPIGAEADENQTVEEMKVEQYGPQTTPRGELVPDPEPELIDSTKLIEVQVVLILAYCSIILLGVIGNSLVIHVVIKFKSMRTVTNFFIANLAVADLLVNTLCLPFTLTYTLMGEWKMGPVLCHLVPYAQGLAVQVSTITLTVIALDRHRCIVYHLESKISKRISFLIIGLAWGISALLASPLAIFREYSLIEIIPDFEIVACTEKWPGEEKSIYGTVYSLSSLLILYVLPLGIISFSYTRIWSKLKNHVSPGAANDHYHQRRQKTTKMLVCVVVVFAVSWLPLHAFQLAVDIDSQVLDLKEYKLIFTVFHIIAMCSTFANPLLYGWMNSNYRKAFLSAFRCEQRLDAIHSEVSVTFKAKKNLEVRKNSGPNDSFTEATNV

T2: human Y1 receptor (human, UniProt P25929 1-384)
T2 sequence (looked up): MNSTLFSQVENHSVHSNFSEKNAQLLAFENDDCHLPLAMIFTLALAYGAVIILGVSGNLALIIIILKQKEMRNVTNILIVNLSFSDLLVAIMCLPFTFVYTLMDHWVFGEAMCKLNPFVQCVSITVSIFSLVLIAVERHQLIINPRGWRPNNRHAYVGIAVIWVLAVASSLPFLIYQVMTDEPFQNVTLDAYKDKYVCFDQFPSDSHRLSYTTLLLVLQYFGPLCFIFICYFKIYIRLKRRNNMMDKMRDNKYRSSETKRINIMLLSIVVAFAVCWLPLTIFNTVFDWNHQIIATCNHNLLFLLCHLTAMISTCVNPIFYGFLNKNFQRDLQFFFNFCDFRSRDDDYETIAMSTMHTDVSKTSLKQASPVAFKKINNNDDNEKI


Legend:
[1] = in vivo; conditions: dog, iv, 100 ug/kg
Protocol: (§1) At the highest dose a plasma levels of 100 nM was obtained in the dogs.

[2] = test system: anesthetized dogs; experiment: in vivo; conditions: dog, iv
Protocol: as §1

[3] = test system: mice; experiment: Acute food intake in mice after subcutaneous injection; assay type: in vivo; conditions: mice fasted 16 hours, sc
Protocol: Food and water were available ad libitum except just before experiments (see below). The mice were acclimatized to subcutaneous injections during the week before experiments started. Mice were used once each in the experiments. Just before administration the peptides were diluted in physiological saline and administered in 100 μL volume for subcutaneous administration. Results are expressed as mean +/−SE. Analysis of variance followed by Bonferroni's test were used to assess differences among groups.
A standard diet was used (CLEA Japan, Inc., Tokyo, Japan) and food intake was measured by subtracting uneaten food from the initially premeasured food after administration and checking for food spillage.

[4] = in vivo; design: species or system cyno monkeys; conditions: cynomolgus monkey
Source text: […]. […] […]. Apparently, the Y4 receptor activation—conceivably in the area postreama-prevents the emetic effect of the Y2 activation form the same compound. This property of a combined Y2-Y4 selective agonist is of great benefit for the treatment of obesity and associated conditions.

[5] = molecular target: T1, human Y2 receptor; experiment: cell-based or functional assay
[6] = molecular target: human Y4 receptor (human, UniProt P50391 1-375); experiment: cell-based or functional assay
[7] = molecular target: T2, human Y1 receptor; experiment: cell-based or functional assay

human Y4 receptor, sequence (P50391 whole entry): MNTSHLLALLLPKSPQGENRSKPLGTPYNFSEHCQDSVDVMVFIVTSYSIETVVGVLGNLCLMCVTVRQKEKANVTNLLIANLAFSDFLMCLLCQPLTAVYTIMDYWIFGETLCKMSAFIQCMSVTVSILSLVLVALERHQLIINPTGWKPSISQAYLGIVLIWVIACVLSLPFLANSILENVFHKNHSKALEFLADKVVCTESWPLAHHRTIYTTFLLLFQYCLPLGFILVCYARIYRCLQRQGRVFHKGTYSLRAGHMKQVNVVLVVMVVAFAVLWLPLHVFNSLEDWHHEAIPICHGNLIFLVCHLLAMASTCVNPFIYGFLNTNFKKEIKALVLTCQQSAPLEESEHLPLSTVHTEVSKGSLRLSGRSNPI

level at time molar [1]	plasma level dose relationship [2]	level at time molar [4]	EC50, inositol phosphate turnover [5]	EC50, inositol phosphate turnover [6]	EC50, inositol phosphate turnover [7]	Molecule	duration of inhibition of food intake ([3]; 1 μg per animal)	inhibitory effect on food intake compared with PYY3-36 ([3]; 1 and 10 μg per animal)
100 nM	linear dose relationship	12 to 13 nM				CC[C@H](C)[C@H](NC(=O)[C@H](Cc1ccc(O)cc1)NC(=O)[C@H](CCCNC(=N)N)NC(=O)[C@H](CCCNC(=N)N)NC(=O)[C@H](CC(C)C)NC(=O)[C@H](CC(=O)O)NC(=O)[C@H](C)NC(=O)[C@H](C)NC(=O)[C@H](Cc1ccc(O)cc1)NC(=O)[C@H](CCC(N)=O)NC(=O)[C@H](C)NC(=O)[C@H](CCSC)NC(=O)[C@H](CCC(N)=O)NC(=O)[C@H](CCC(=O)O)NC(=O)[C@@H]1CCCN1C(=O)[C@@H](NC(=O)[C@H](C)NC(=O)[C@H](CC(N)=O)NC(=O)[C@H](CC(=O)O)NC(=O)CNC(=O)[C@@H]1CCCN1C(=O)[C@H](Cc1ccc(O)cc1)NC(=O)[C@@H](NC(=O)[C@@H]1CCCN1C(=O)[C@H](CCC(=O)O)NC(=O)[C@H](CC(C)C)NC(=O)[C@@H]1CCCN1C(=O)[C@H](C)N)C(C)C)[C@@H](C)O)C(=O)N[C@@H](CC(N)=O)C(=O)N[C@@H](CCSC)C(=O)N[C@@H](CC(C)C)C(=O)N[C@H](C(=O)N[C@@H](CCCNC(=N)N)C(=O)N[C@@H](CCC(N)=O)C(=O)N[C@@H](CCCNC(=N)N)C(=O)N[C@@H](Cc1ccc(O)cc1)C(N)=O)[C@@H](C)O [[Gln34]PP]	more than 8 hours	more pronounced and long-lasting inhibitory effect
			8.6 nM	4.5 nM	102 nM	APLEPVYPGDNATPEQMAQYAADLRRYINLLTRQRY-NH2 [[Leu30,Gln34]PP]		
			6.1 nM	9.2 nM	130 nM	APLEPVYPGDNATPEQMAQYAADLRHYINMLTRQRY-NH2 [[His26,Gln34]PP]		

— patent US20080261871A1, “Y2/Y4 Selective Receptor Agonists for Therapeutic Interventions” (priority 2004, published 2008)
